B1: OR4K15 (parent)
chain: GUUAACGGUCAUAGGCCAUGGAAACUAGGAGCACCAUUUCGCUGCCAGUGAAGAAAUGAACAAAGAAAAUCUGGGCCAGGCAGGCAUCAAAAGAAAUAGUCUUGCGCUCAACCAGAAAGUCUGUAAUCAUUUUAAGGGUA

This series covers variants of B1. Kind of series: self-cleavage, relative activity (ratio to wild type); higher = more cleavage; in vitro, sequencing; the parent is a self-cleaving ribozyme.
Take GUUAACGGUCAUAGGCCAUGGAAACUAGGAGCACCAUUUCGCUGCCAGUGAAGAAAUGAACGAAGAAAAUCUGGGCCAGGCAGGCAUCAAAAGAAAUAGUCUUGCACUCAACCAGAAAGUCUGUAAUCAUUUUAAGGGUA: the self-cleavage turned out to be 0.01.

As to GUUAACGGUCAUGGGCCAUGGAAACUAGGAGCACCAUUUCGCUGCCAGUGAAGAAAUGAACAAAGAAAAUCUGGGCCAGGCAGGCAUCAAAAGAUAUAGUCUUGCGCUCAACCAGAAAGUCUGUAAUCAUUUUAAGGGUA, the self-cleavage stood at 2.06. For GUUAACGGUCAUAGGCCACGGAAACUAGGAGCACCAUAUCGCUGCCAGUGAAGAAAUGAACAAAGAAAAUCUGGGCCAGGCAGGCAUCAAAAGAAAUAGUCUUGCGCUCAACCAGAAAGUCUGUAAUCAUUUUAAGGGUA, the self-cleavage was determined as 1.46. As to GUUAACGGUCAUAGGCCAUGGAAACUAGGAGCACCAUUUCGCUGCCAGUGAAGAAAUGAACAAAGAAAAUCUGGGCCAGGCAGGCACCAAAAGAAAUAGUCUUGCGCUCAACCAGAAAGUCUGUUAUCAUUUUAAGGGUA, the self-cleavage was found to be 1.74. The result for GUUAACGGUCAUAGGCCAUGGAAACUAGGAGCACCAAUUCGCUGCCAGUGAAGAAAUGAGCAAAGAAAAUCUGGGCCAGGCAGGCAUCAAAAGAAAUAGUCUUGCGCUCAACCAGAAAGUCUGUAAUCAUUUUAAGGGUA reads 1.14; that for GUUAACGGUCAUAGGCCAUGGAAACUAGGAGCACCAUUUCGCUGCCAGUGAAGAAAUGAACGAAGAAAAUCAGGGCCAGGCAGGCAUCAAAAGAAAUAGUCUUGCGCUCAACCAGAAAGUCUGUAAUCAUUUUAAGGGUA, 0.18. Take GUUAACGGUCGUAGGCCAUGGAAACUAGGAGCACCAUUUCGCUGCCAGUGAAGAAAUGAACAAAGAAAAUCUGGGCCAGGCAGGCAUCAAAAGAAAUAGUCUUGCGCUCAACCAGAAGGUCUGUAAUCAUUUUAAGGGUA: the self-cleavage is 1.02. Turning to GUUAACGGUCAUAGGCCAUGGAAACUAGGAGCACCAUUUCGCUGCCAGUGAAGAAAUGAACAAAGAAGAUCUGGGCCAGGCAGGCAUCAAAAGAAAUAGUCUUGCGCUCAACCAGAAUGUCUGUAAUCAUUUUAAGGGUA, the self-cleavage worked out at 0.83. Then GUUAACGGUCCUAGGCCAUGGAAACUAGGAGCACCAUUUCGCUGCCAGUGAAGAAAUGAACAAAGAAAAUCUGGGCCAGGCAGGCAUCAAAAGAAAUAGUCCUGCGCUCAACCAGAAAGUCUGUAAUCAUUUUAAGGGUA, with 1.91; and GUUAACGGUCAUAGGCCAUGGGAACUAGGAGCACCACUUCGCUGCCAGUGAAGAAAUGAACAAAGAAAAUCUGGGCCAGGCAGGCAUCAAAAGAAAUAGUCUUGCGCUCAACCAGAAAGUCUGUAAUCAUUUUAAGGGUA, with 1.68; and GUUAACGGUCAUAGGCCGUGGAAACUAGGAGCACCAUUUCGCUGCCAGUGAAGAAAUGAACAGAGAAAAUCUGGGCCAGGCAGGCAUCAAAAGAAAUAGUCUUGCGCUCAACCAGAAAGUCUGUAAUCAUUUUAAGGGUA, with 1.17. Then GUUAACGGUCAUAGGCCAUGGAAACUAGGAGCACCAUUUCGCUGCCAGUGGAGAAAUGAACAAAGAAAAUCUGGGCCAGGCAGGCAUCAAAAGAAAUAGUCUUGCGCUCAACCAGAAAGUCUGUAAUCUUUUUAAGGGUA, with 0.76. With GUUAACGGUCAUAGGCCAUGGAAACUAGGAGCACCUUUUCGCUGCCAGUGAAGAAAUGAACAAAGAGAAUCUGGGCCAGGCAGGCAUCAAAAGAAAUAGUCUUGCGCUCAACCAGAAAGUCUGUAAUCAUUUUAAGGGUA, the self-cleavage turned out to be 1.86. Then GUUGACGGUCAUAGGCCAUGGAAACUAGGAGCACCAUUUCGCUGCCAGUGAAGAAAUGAACAAAGAAAAUCUGGGCCAGGCAGGCAUCAAAAGAAAUAGUCUUGUGCUCAACCAGAAAGUCUGUAAUCAUUUUAAGGGUA, with 0.14; and GUUAACGGUCAUAGGCCUUGGAAACUAGGAGCACCAUUUCGCUGCCAGUGAAGAAAUGUACAAAGAAAAUCUGGGCCAGGCAGGCAUCAAAAGAAAUAGUCUUGCGCUCAACCAGAAAGUCUGUAAUCAUUUUAAGGGUA, with 0.69. Take GUUAACGGUCAUAGGCCAUGGAAACUAGGAGCACCAUAUCGCUGCCAGUGAAGAAAUGAACAAAGAAAAUCUGGGCCAGGCAGGCAUCAAAAGAAAUAGUCUUGCGCUCAACCAGAAAGUCUGUAAUCAUUUUAAGUGUA: the self-cleavage stood at 2.73. GUUAACAGUCAUAGGCCAUGGAAACCAGGAGCACCAUUUCGCUGCCAGUGAAGAAAUGAACAAAGAAAAUCUGGGCCAGGCAGGCAUCAAAAGAAAUAGUCUUGCGCUCAACCAGAAAGUCUGUAAUCAUUUUAAGGGUA: the self-cleavage was found to be 1.44.

GUUAACGGUCAUAGGCCAUGGAAACUAGGAGCACCAUUUCGCUGCCAGUGAAGAAAUGAACAAAGAGAAUCUGGGCCAGGCAGGCAUCAAAAGAAAUAGUCUUGCGCUCAACCAGAAAGACUGUAAUCAUUUUAAGGGUA: the self-cleavage came to 1.38. For GUUAACGGUCAUAGGCCAUGGAAACUAGGAGCACCAUUUCGCUGCCAGUGAAGAAAUGAACAAAGAAGAUCUGGGCCAGGCAGGCAUCAAAAGGAAUAGUCUUGCGCUCAACCAGAAAGUCUGUAAUCAUUUUAAGGGUA, the self-cleavage was 1.34. Regarding GUUAACGGUCAUAGGCCAUGGAAACUAGGAGCACCAUUUCGCUGCCAGUGAAGAAAUGGACAAAGAAAAUCUGGGCCUGGCAGGCAUCAAAAGAAAUAGUCUUGCGCUCAACCAGAAAGUCUGUAAUCAUUUUAAGGGUA, the self-cleavage was found to be 0.28. On to GUUAACGGUCAUAGGCCAUGGAAACUAGGAGCACCAUUUCGCCGCCAGUGAAGAAAUGAGCAAAGAAAAUCUGGGCCAGGCAGGCAUCAAAAGAAAUAGUCUUGCGCUCAACCAGAAAGUCUGUAAUCAUUUUAAGGGUA, for which the self-cleavage stood at 1.43.

Turning to GUUAACGGUCAUAGGCCAUGGAAACUAGGAGCACCAUUUCGCUGCCAGUGAAGAAAUGAACAAAGAAAAUCUGGGCCAGGCAGGCAUCAGAAGAAAUAGUCUAGCGCUCAACCAGAAAGUCUGUAAUCAUUUUAAGGGUA, the self-cleavage came to 0.26. In the case of GUUAACGGUCGUAGGCCAUGGAAACUAGGAGCACCAUUUCGCUGCCAGUGAAGAGAUGAACAAAGAAAAUCUGGGCCAGGCAGGCAUCAAAAGAAAUAGUCUUGCGCUCAACCAGAAAGUCUGUAAUCAUUUUAAGGGUA, the self-cleavage worked out at 0.92. The result for GUUAACGGUCAUAGGCCAUGGAAACUAGGAGCACCAUUUCGCUGCCAGUGAAGAGAUGAACAAAGAAAAUCUGGGCCAGGCAGGCAUCAAAAGAAAUAGUCUUGCGCUCAACCAGAAAGUCUGUACUCAUUUUAAGGGUA reads 0.18; that for GUUAACGGUCAUAGGCCAUGGAAACUAGGAGCACCACUUCGCUGCCAGUGAAGAAACGAACAAAGAAAAUCUGGGCCAGGCAGGCAUCAAAAGAAAUAGUCUUGCGCUCAACCAGAAAGUCUGUAAUCAUUUUAAGGGUA, 1.18. The result for GUUAACGGUCAUAGGCCAUGGAAACUAGGAGCACCAUUUCGCUGCCAGUGAAGAAAUGAACAAAGGAAGUCUGGGCCAGGCAGGCAUCAAAAGAAAUAGUCUUGCGCUCAACCAGAAAGUCUGUAAUCAUUUUAAGGGUA reads 1.02; that for GUUAACGGUCAUAGGCCAUGGAAACUAGGAGCGCCAUUUCGCUGCCGGUGAAGAAAUGAACAAAGAAAAUCUGGGCCAGGCAGGCAUCAAAAGAAAUAGUCUUGCGCUCAACCAGAAAGUCUGUAAUCAUUUUAAGGGUA, 0.32. For GUUAACGGUCAUAGGCCAUGGAAACUAGGAGCACCAUUUCGCUGCCAGUGAAGAAAUGAACAAAGAAAAUCUGGGCCGGGCAGGCAUCAAAAGAAAUAGUCUUGCGCUCAACCAGAAAGUCUGUGAUCAUUUUAAGGGUA, the self-cleavage was 0.1. Regarding GUUAACGGUCAUUGGCCAUGGAAACUAGGAGCACCAUCUCGCUGCCAGUGAAGAAAUGAACAAAGAAAAUCUGGGCCAGGCAGGCAUCAAAAGAAAUAGUCUUGCGCUCAACCAGAAAGUCUGUAAUCAUUUUAAGGGUA, the self-cleavage stood at 0.61. Turning to GUUAACGGUCAUAGGCCAUGGAAACUAGGAGCACCAUUUCGCUGCCAGUGAAGAAAUGCACAAAGAAAAUCUGGGCCAGGCAGGCAUCAAAAGAAAUAGUCUUGCGCUCAACCAGAAAGUCUGAAAUCAUUUUAAGGGUA, the self-cleavage turned out to be 0.73.

In the case of GUCAACGGUCAUAGGCCAUGGAAACUAGGAGUACCAUUUCGCUGCCAGUGAAGAAAUGAACAAAGAAAAUCUGGGCCAGGCAGGCAUCAAAAGAAAUAGUCUUGCGCUCAACCAGAAAGUCUGUAAUCAUUUUAAGGGUA, the self-cleavage came to 1.2. For GUUAACGGUCAUAGGCCAUGGAAACUAGGAGCACCAUUUCGCGGCCAGUGAAGAAAUGAACAAAGAAAAUCUGGGCCAGGCAGGCAUCAAAAGAAAUAGUCUUGCGCUCAACCAGAAAGUCUGUAGUCAUUUUAAGGGUA, the self-cleavage is 0.92. The result for GUUAACGGCCAUAGGCCAUGGAAACUAGGAGCACCAUUUCGCUGCCAGUGAAGAAAUGAACAAAGAAAAUCUGGGCCAGGCAGGCAUCAAAAGAAAUAGUCUUGCGCUCAACCAGAAAGCCUGUAAUCAUUUUAAGGGUA reads 1.66. On to GUUAACGAUCAUAGGCCAUGGAAACUAGGAGCACCAUUUCGCUGCCAGUGAAGAAAUGAACAAAGAAAAUCUGGGCCAGGCAGGCAUCAAAAGAAAUAGUCUUGCGCUCAACCAGAAAGUCCGUAAUCAUUUUAAGGGUA, for which the self-cleavage was found to be 0.6. Consider GUUAACGGUCAUAGGCCAUGGAAACUAGGAGCACCAUUUCGCUGCCAGUGAAGAAGUGAACAAAGAAAAUCUGGGCCAGGCAGGCAUCAAAAGAAAUAGUCUUGCGCUCAACCAGAAAGUCUGUAAUCAUUUUGAGGGUA, for which the self-cleavage worked out at 1.2. On to GUUAACGGUCAUAGGCCAUGGAAACUAGGAGCACCAUAUCGCUGCCAGUGAAGAAAUGAACAAAGAAAAUCUGGGCCAGGCAGGCAUCAAAAGAAAUAGUCUGGCGCUCAACCAGAAAGUCUGUAAUCAUUUUAAGGGUA, for which the self-cleavage worked out at 0.04.

With GUUAACGGUCAUAGGCCAUGGAGACUAGGAGCACCAUUUCGCUGCCAGUGAAGAAAUGAACAAAGAAAAUCUGGGCCGGGCAGGCAUCAAAAGAAAUAGUCUUGCGCUCAACCAGAAAGUCUGUAAUCAUUUUAAGGGUA, the self-cleavage worked out at 0.29. The result for GUUAACGGUCAUAGGCCAUGGAAACUAGGAGCACCUUUUCGCUGCCAGUGAAGAAAUGAACAAAGAAAAUCUGGGCCAGGCAGGCAUCAAAAGAAAUAGUCUUGCGCUCAACCAGAAAGUCUGUAAUCAUCUUAAGGGUA reads 1.87; that for GUUAACGGUCAUAGGCCAUGGAAACUAGGAGCACCAUUUCGCUGCCAGUGAAGAGAUGAACAAAGAAAAUCUGGGCCAGGCAGGCAUCAAAAGAAAUAGUCUUGCGCUCAACCAGAAAGUCGGUAAUCAUUUUAAGGGUA, 2.18. Consider GUUAACGGUCAUAGGCCAUGGAAACUAGGGGCACCAUUUCGCUGCCAGUGAAGAAAUGAACAAAGAAAAUCUGGGCCAGGCAGGCAUCAAAAGAAAUAGUCUUGCGCUCAUCCAGAAAGUCUGUAAUCAUUUUAAGGGUA, for which the self-cleavage worked out at 0.05. With GUUAACGGCCAUAGGCCAUGGAAACUAGGAGCACCAUUUCGCUGCCAGUGAAGAAAUGAACGAAGAAAAUCUGGGCCAGGCAGGCAUCAAAAGAAAUAGUCUUGCGCUCAACCAGAAAGUCUGUAAUCAUUUUAAGGGUA, the self-cleavage worked out at 1.49.

(Values after the RNAGym collection of RNA variant scans (doi:10.7554/elife.90254).)
